The source of these data is article PMC4155161 (Structure(London, England:1993), 2014).

One data set has as its target p53 (Danio rerio) (UniProt P79734). Particulars: cited from earlier work.
Data set [1] deals with the molecule itself. As to the kind of experiment: SEC-MALS; DRp53(302-331) at high concentrations (170 and 870 uM monomer at the peak); room temperature, 50 mM Tris pH 7.5, 150 mM NaCl, Superdex 75 10/300.
Data set [2] concerns the molecule itself. As to the kind of experiment: SEC-MALS; DRp53(302-345) at 185, 46 and 9 uM (monomer concentration at the peak); room temperature, 50 mM Tris pH 7.5, 150 mM NaCl, Superdex 75 10/300. (In gel filtration, larger molecules generally elute earlier.)
Data set [3] deals with the molecule itself. As to the kind of experiment: crystal structure; DRp53(302-346), two crystal forms (C222(1), 1.97 A; P2(1), 2.2 A), grown at 20 C with zinc acetate and polyethylene glycol.

Consider p53 (from UniProt P79734), for which the Kd (in general, a measure of binding affinity in units of concentration) with p53 (Danio rerio) was 3.6 nM.

B1: zebrafish p53 tetramerization domain deletion variant lacking helix H2, DRp53(302-331) (domain or fragment, zebrafish (Danio rerio), UniProt G1K2L5 302-331, looked up)
chain: EEIFTLQVRGRERYEILKKLNDSLELSDVV
notes: numbering on UniProt/TrEMBL entry G1K2L5 (length of 374 amino acids); same vector and cleavage here; also called truncated domain; short variant; not shown: His6, N-terminal, cleaved; lipoyl domain of B. stearothermophilus dihydrolipoamide acetyltransferase, N-terminal, cleaved
In the case of B1, the stoichiometry N (usually the number of molecules, sites or subunits per partner or assembly) in data set [1] came out at 4.

B2: zebrafish p53 tetramerization domain, residues 302-345, DRp53(302-345) (domain or fragment, zebrafish (Danio rerio), UniProt G1K2L5 302-345, looked up)
chain: EEIFTLQVRGRERYEILKKLNDSLELSDVVPASDAEKYRQKFMT
notes: numbering on UniProt/TrEMBL entry G1K2L5 (length of 374 amino acids); Used for SEC-MALS; the two may be the same construct; not shown: His6, N-terminal, cleaved; lipoyl domain of B. stearothermophilus dihydrolipoamide acetyltransferase, N-terminal, cleaved; GGS, N-terminal, kept
For B2, the “stoichiometry N” value in data set [2] turned out to be 4.

B3: zebrafish p53 tetramerization domain, DRp53(302-346) (domain or fragment, zebrafish (Danio rerio), UniProt G1K2L5 302-346, looked up)
chain: EEIFTLQVRGRERYEILKKLNDSLELSDVVPASDAEKYRQKFMTK
notes: numbering on UniProt/TrEMBL entry G1K2L5 (length of 374 amino acids); Crystallised construct; same vector and cleavage here; also called full-length tetramerization domain; long variant; not shown: His6, N-terminal, cleaved; lipoyl domain of B. stearothermophilus dihydrolipoamide acetyltransferase, N-terminal, cleaved
On to B3, for which, in data set [3], the binding result was “binds”.
